Assay results reported in patent US7563583B2, “Heregulin variants” (Genentech, Inc., priority 1997, dated 2009).
Changes are numbered by the printed parent chain.

Assays:
[1] = target: T1, ErbB-3-Ig (Homo sapiens, UniProt P21860); assay: Phage ELISA of phage-displayed HRG-β1 variants, binding to ErbB-3-Ig
T1 construct: expressed the extracellular domain (ECD) of the ErbB-2, ErbB-3, or ErbB-4 receptor fused to a human IgG constant domain; made in house; host or cells: HEK-293 cells, secreted, Protein A purified
T1 sequence (P21860 with tags, fused parts or gaps): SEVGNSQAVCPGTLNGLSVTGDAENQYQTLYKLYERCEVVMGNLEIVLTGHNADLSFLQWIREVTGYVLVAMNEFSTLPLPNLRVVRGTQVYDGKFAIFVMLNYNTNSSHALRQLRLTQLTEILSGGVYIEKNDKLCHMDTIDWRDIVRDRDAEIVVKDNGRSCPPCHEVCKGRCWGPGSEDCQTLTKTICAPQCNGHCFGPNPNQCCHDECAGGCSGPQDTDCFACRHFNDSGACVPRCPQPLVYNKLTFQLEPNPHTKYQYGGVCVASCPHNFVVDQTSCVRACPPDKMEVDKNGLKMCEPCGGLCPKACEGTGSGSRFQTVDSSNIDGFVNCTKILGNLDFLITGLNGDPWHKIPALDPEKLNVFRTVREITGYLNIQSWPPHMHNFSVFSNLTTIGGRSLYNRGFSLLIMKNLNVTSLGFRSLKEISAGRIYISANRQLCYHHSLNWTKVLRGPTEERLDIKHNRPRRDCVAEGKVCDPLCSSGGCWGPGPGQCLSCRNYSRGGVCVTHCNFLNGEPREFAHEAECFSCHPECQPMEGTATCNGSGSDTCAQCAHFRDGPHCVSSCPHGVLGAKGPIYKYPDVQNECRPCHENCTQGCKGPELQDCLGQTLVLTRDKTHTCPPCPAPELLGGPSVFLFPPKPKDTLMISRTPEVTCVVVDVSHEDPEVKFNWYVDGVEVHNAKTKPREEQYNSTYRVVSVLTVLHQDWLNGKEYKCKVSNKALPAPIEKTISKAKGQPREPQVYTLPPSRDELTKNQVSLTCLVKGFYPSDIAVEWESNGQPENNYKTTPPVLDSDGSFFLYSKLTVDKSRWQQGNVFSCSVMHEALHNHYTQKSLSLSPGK
Procedure: To produce phage displaying the domains, mutagenesis reaction mixtures were electrotransformed into XL1-Blue™ cells (Stratagene, Inc., La Jolla, Calif.), according to the manufacturer's protocol. The transformed cells were then infected with 10^14 plaque-forming units (pfu) M13K07 helper phage (Promega Corp., Madison, Wis.). Phage stocks (about 10^14 phagemid/mL) were prepared by precipitating culture broths from the cells after 18-24 hours (h) of growth with 20% PEG(2000)/2.5 M NaCl, according to the method of Sambrook and Maniatis, Molecular Cloning a Laboratory Manual Cold Spring Harbor Press 429 (1989). […]
Serial dilutions of soluble ErbB-2/3-Ig (competitor) and a concentration of phage predetermined to give 60% saturation (without competitor) were added to the wells in 100 μL binding buffer. […] The amount of phage binding was determined by assaying horseradish peroxidase activity using o-phenylenediamine dihydrochloride) substrate solution (Sigma Chemical Company, St. Louis, Mo.). EC50 values were calculated as the concentration of soluble ErbB-2/3-Ig required to compete half of the phage off the plate.
Alanine-substituted variants were generated by site-directed mutagenesis according to Kunkel et al., Methods Enzymol. […] The affinities of the alanine-substituted variants for ErbB-3-Ig and ErbB-4-Ig was determined by phage ELISA as described in Example 1. […]

[2] = target: T2, ErbB-4-Ig (Homo sapiens, UniProt Q15303); assay: Inhibition of 125I-HRG-β1 177-244 binding by soluble Trx-variant fusions; conditions: soluble thioredoxin (Trx)-variant fusions; HRG-β1 = recombinant HRG-β1 177-244
T2 construct: expressed the extracellular domain (ECD) of the ErbB-2, ErbB-3, or ErbB-4 receptor fused to a human IgG constant domain; made in house; host or cells: HEK-293 cells, secreted, Protein A purified
T2 sequence (Q15303 with tags, fused parts or gaps): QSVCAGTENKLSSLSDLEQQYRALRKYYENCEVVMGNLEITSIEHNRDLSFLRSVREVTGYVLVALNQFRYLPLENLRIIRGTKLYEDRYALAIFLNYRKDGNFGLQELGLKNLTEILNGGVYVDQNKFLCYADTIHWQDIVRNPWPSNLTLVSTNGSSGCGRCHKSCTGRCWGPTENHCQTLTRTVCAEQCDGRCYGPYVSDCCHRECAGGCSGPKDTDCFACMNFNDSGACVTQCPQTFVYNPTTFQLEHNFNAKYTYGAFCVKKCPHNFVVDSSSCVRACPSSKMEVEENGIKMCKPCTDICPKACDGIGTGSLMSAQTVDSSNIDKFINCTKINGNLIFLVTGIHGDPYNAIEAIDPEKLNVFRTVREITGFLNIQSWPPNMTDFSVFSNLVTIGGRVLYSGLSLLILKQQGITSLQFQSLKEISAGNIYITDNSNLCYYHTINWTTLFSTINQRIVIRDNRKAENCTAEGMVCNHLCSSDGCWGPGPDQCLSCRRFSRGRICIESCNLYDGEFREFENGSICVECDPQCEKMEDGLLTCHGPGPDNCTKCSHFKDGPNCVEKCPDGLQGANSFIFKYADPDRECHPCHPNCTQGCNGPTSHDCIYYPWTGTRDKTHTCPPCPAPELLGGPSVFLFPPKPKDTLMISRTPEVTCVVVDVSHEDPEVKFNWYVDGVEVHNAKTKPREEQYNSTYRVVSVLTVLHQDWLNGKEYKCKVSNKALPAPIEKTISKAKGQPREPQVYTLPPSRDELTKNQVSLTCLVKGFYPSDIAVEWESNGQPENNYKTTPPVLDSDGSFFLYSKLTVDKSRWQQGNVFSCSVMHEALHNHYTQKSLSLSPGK
Procedure: (§1) The affinities of the Trx-variant fusions for ErbB receptor-Ig fusions were determined by measuring inhibition of ^125I-HRG-β1 177-244 binding to ErbB-3-Ig and ErbB-4-Ig. Receptor fusions were coated on plates (Nunc Maxisorp C™ break-apart strip wells, Inter Med, Denmark) via anti-human IgG, as described in Example 1 for phage ELISA. Binding assays were carried out with a constant amount of ^125I-HRG-β1 177-244 (100-300 pM) and varying concentrations (100 pM-4 μM) of unlabeled Trx-variant fusion. Following incubation for 1-3 h at room temperature, plates were washed, and the amount of bound ^125I-HRG-β1 177-244 in each well was counted on a gamma counter (Isodata, ICN Biomedic Systems, Huntsville, Ala.). For the ErbB-3 binding assays, the blocking buffer was TBST (0.025 M Tris-HCl [pH 7.5], 0.15 M NaCl, 0.02% Tween 20™) containing 1% BSA; the binding buffer was RPMI 1640™ cell culture media (Gibco-BRL, Gaithersburg, Md.) containing 2 mM glutamine, 100 U/mL penicillin, 100 μg/mL streptomycin, 10 mM HEPES buffer (pH 7.2), 0.2% BSA; and the wash buffer was TBST. For the ErbB-4 binding assays, PBS containing 1% BSA was used as the blocking and binding buffers, and the wash buffer was PBS containing 0.05% Tween 20™.

[3] = target: T1, ErbB-3-Ig; assay: as above; conditions: soluble thioredoxin (Trx)-variant fusions; HRG-β1 = recombinant HRG-β1 177-244
Procedure: as §1

[4] = system: ErbB-3 or ErbB-4 receptors; assay: Alanine scan of the HRG-β1 EGF-like domain by phage ELISA (FIG. 2); assay type: binding; conditions: ratio of variant EC50 to wild-type EC50
Procedure: The X axis lists each amino acid that was changed to alanine and its position. […] The EC50 was calculated as the concentration of soluble receptor fusion required to displace 50% of the total amount of phage bound to immobilized receptor fusion. ErbB-3 binding results are shown with black bars, and ErbB-4 binding results are shown with white bars.
Alanine-substituted variants were generated by site-directed mutagenesis according to Kunkel et al., Methods Enzymol. 154:367-82 (1987) (hereinafter “Kunkel mutagenesis”), using uracil-containing single-stranded DNA template prepared from pHRG2-g3. pHRG2-g3, which is described in Example 1, expressed HRG-β1 177-244 fused to pIII 247. A series of oligonucleotides was used to generate a series of constructs that expressed a series of variants in which consecutive residues were mutated to alanine. Phage stocks were prepared from these constructs as described in Example 1, except that PEG(8000) was used to precipitate the phage. The affinities of the alanine-substituted variants for ErbB-3-Ig and ErbB-4-Ig was determined by phage ELISA as described in Example 1.

[5] = system: ErbB-2/3-Ig; assay: Inhibition of 125I-HRG binding by soluble HRG-β1 EGF variants; conditions: ErbB-2/3-Ig versus ErbB-3-Ig homodimer
Procedure: The affinities of the soluble variants for ErbB-Ig were determined by measuring inhibition of ^125I-HRG binding to ErbB-2/3, -3 and -4 receptor-Ig fusions, as previously described in Example 1.

## B10: HRG-β1 EGF library B variant: A183D, E184K, K185S, E186R, K187E, T188G, M226I (SHLVKCDKSREGFCVNGGECFMVKDLSNPSRYLCKCPNEFTGDRCQNYVIAS; left off: large carriers; small tags and cut ends) [Variant B10]
[1]; phage ELISA
  increase in ErbB-3 receptor (ErbB-3-Ig) affinity over wild-type HRG-β1 EGF: up to 26 fold

B1: HRG63: HRG-β1 EGF control variant in which HRG-β1 202-204 of HRG8 are deleted (protein)
chain: SHLVKCAEKEKTFCVNGGECFMVKDPSRYLCKCPNEFTGDRCQNYVMASGGGSGGGSGGGSNSQMAQVGDGDNSPLMNNFRQYLPSLPQSVECRPFVFSAGKPYEFSIDCDKINLFRGVFAFLLYVATFMYVFSTFANILRNKES
[1]; relative to wild-type HRG-β1 EGF-phage in the same assay run, above 1 = higher affinity, ± SD of 2-4 duplicate runs
  Phage ErbB-3 EC50 (wt)/EC50 (mut): 1.1 ± 0.8

B2: R220: HRG-β1 variant with R220 mutated to alanine (protein)
chain: SHLVKCAEKEKTFCVNGGECFMVKDLSNPSRYLCKCPNEFTGDACQNYVMASFYKHLGIEFMEAEELY
modifications: left off: large carriers; small tags and cut ends
notes: HRG-β1 variant with R220 mutated to alanine
[2]
  Sol EC50, binding to the ErbB-4 receptor: no binding
[3]
  Sol EC50, binding to the ErbB-3 receptor: no binding

B3: E184: HRG-β1 variant with E184 mutated to alanine (protein, UniProt Q02297 1-640, looked up, variant E184A)
chain: MSERKEGRGKGKGKKKERGSGKKPESAAGSQSPALPPRLKEMKSQESAAGSKLVLRCETSSEYSSLRFKWFKNGNELNRKNKPQNIKIQKKPGKSELRINKASLADSGEYMCKVISKLGNDSASANITIVESNEIITGMPASTEGAYVSSESPIRISVSTEGANTSSSTSTSTTGTSHLVKCAAKEKTFCVNGGECFMVKDLSNPSRYLCKCQPGFTGARCTENVPMKVQNQEKAEELYQKRVLTITGICIALLVVGIMCVVAYCKTKKQRKKLHDRLRQSLRSERNNMMNIANGPHHPNPPPENVQLVNQYVSKNVISSEHIVEREAETSFSTSHYTSTAHHSTTVTQTPSHSWSNGHTESILSESHSVIVMSSVENSRHSSPTGGPRGRLNGTGGPRECNSFLRHARETPDSYRDSPHSERYVSAMTTPARMSPVDFHTPSSPKSPPSEMSPPVSSMTVSMPSMAVSPFMEEERPLLLVTPPRLREKKFDHHPQQFSSFHHNPAHDSNSLPASPLRIVEDEEYETTQEYEPAQEPVKKLANSRRAKRTKPNGHIANRLEVDSNTSSQSSNSESETEDERVGEDTPFLGIQNPLAASLEATPAFRLADSRTNPAGRFSTQEEIQARLSSVIANQDPIAV
[4]
  effect of substitution with alanine on affinity for the ErbB-3 or ErbB-4 receptors: two

B4: T188: HRG-β1 variant with T188 mutated to alanine (protein, UniProt Q02297 1-640, looked up, variant T188A)
chain: B3 chain with A184E, T188A
[4]
  effect of substitution with alanine on affinity for the ErbB-3 or ErbB-4 receptors: two and five

B5: HRG8: wild-type HRG-β1 177-228 (minimal EGF-like domain); on phage linked via (GGGS)3 to pIII 323, or soluble (protein)
chain: SHLVKCAEKEKTFCVNGGECFMVKDLSNPSRYLCKCPNEFTGDRCQNYVMASGGGSGGGSGGGSNSQMAQVGDGDNSPLMNNFRQYLPSLPQSVECRPFVFSAGKPYEFSIDCDKINLFRGVFAFLLYVATFMYVFSTFANILRNKES
[5]
  higher affinity for the 2/3-heterodimer versus the 3/3 homodimer: approximately 100 fold
